Publication PMC2120552
“And” between values parts separate entries of the source, which are not always exact repeats. Equal values may be shown once.

Target: synthetic beta1 peptide, identical in sequence to the complete cytoplasmic domain of the beta1 integrin subunit
Assay: pull-down

percent of the protein in the lysate bound: 10% and > 10%
Substance: alpha-actinin (from UniProt P05094 1-893) (natural protein)
